Assay results reported in patent US20040005671A1 (ZENYTH OPERATIONS, published 2004).

B1: VEGF-R1D2 (Ig domain 2 of human VEGF-R1, residues 129-229, from E. coli) (receptor, UniProt P17948 129-229, looked up)
chain: SDTGRPFVEMYSEIPEIIHMTEGRELVIPCRVTSPNITVTLKKFPLDTLIPDGKRIIWDSRKGFIISNATYKEIGLLTCEATVNGHLYKTNYLTHRQTNTI
notes: range 129-229; Cloned into pQE30; also called Flt-1 domain 2

Columns and labels:
[1] = target: VEGF-R1-(hflt1-4)gp130 fusion: chimeric receptor of human VEGF-R1 Ig domains 1 to 4 with the transmembrane and cytoplasmic domains of gp130, on clone 2.1.19.25 cells (human); test: cell-based or functional assay
Sequence of VEGF-R1-(hflt1-4)gp130 fusion: chimeric receptor of human VEGF-R1 Ig domains 1 to 4 with the transmembrane and cytoplasmic domains of gp130, on clone 2.1.19.25 cells (human) (chain, as listed by the source mutant limits assumed, form in doubt): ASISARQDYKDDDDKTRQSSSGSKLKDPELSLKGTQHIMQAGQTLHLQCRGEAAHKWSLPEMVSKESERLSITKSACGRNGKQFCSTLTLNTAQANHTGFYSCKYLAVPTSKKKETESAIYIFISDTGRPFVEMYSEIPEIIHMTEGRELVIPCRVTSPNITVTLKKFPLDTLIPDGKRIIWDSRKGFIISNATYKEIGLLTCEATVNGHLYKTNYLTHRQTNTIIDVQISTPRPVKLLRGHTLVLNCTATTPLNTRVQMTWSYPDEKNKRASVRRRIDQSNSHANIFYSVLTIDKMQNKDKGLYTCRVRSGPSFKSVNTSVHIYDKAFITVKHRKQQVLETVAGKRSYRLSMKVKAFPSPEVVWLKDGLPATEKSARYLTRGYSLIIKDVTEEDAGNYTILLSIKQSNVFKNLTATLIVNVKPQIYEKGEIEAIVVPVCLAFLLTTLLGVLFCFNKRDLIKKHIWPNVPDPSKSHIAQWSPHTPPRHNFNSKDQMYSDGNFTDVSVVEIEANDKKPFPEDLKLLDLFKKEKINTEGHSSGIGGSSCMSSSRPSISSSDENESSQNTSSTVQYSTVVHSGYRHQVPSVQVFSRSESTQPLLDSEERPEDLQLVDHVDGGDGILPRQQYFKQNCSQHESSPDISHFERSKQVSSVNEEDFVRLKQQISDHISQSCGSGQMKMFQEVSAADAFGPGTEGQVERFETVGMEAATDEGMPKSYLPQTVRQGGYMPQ

[2] = target: VEGF-R1-(hflt1-4)gp130 fusion: chimeric receptor of human VEGF-R1 Ig domains 1 to 4 with the transmembrane and cytoplasmic domains of gp130, on clone 2.1.19.25 cells (human)
[3] = target: VEGF-R1D2 (Ig domain 2 of human VEGF-R1, residues 129-229, from E. coli) (human) (UniProt P17948); test: SPR (Biacore), VEGF-B immobilised on a CM5 chip, VEGF-R1D2 in solution, Scatchard analysis at steady state
[4] = target: T1, VEGF-B186 (recombinant mature human, N-terminal His6-tagged, refolded homodimer from E. coli) (human, UniProt P49765 22-207, Refolded homodimer; one protomer given.); test: as above
T1 construct: not shown: N-terminal His6 tag coded by the pET15b vector
T1 sequence: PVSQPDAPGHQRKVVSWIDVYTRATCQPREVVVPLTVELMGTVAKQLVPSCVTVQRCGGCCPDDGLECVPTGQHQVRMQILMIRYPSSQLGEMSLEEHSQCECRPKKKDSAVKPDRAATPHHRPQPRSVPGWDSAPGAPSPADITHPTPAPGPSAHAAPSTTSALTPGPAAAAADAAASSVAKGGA
Protocol: (§1) For initial Biosensor analysis of the binding of the purified and refolded VEGF-B3 isoforms, surface plasmon resonance (Biosensor 2000; Biacore, Sweden) and recombinant VEGF-R1D2 are used. […] The three forms of VEGF-B were immobilized on separate channels of a CM5 sensor chip, while murine LIF was immobilized to a fourth channel to serve as a negative control. Interaction with VEGF-R1D2 was monitored on all channels simultaneously.
(§2) Purified VEGF-R1D2 is diluted to varying concentrations in 0.1% w/v BSA, 20 mM HEPES, 0.15 M NaCl, 0.005% w/v Tween 20, 3.4 mM EDTA, pH 7.4. […] Scatchard analysis is used to determine binding kinetics at steady state equilibrium.

[5] = target: B1; test: as above
Protocol: as §1, §2

VEGF-A (ligand)
luciferase, signal to background ratio, clone 2.1.19.25 cells [1]: 2.5 to 3

VEGF-B167 (recombinant, N-terminal His6-tagged, refolded homodimer from E. coli) (from UniProt P49765 22-207) (ligand)
EC50 (read off the curve) (luciferase reporter, clone 2.1.19.25 cells; VEGF-B167 titrated in the presence of the control mAb at 50 µg/ml) [2]: 0.3 µg/mL | ED50, luciferase, 2.1.19.25 cell-based assay [1]: 0.15 to 0.3 µg/mL | Kd [3]: 1.5 nM

B1
Kd [4]: 2 nM

B2: VEGF-B10-108 (truncated mature human VEGF-B, N-terminal His6-tagged, refolded homodimer from E. coli) (ligand, UniProt P49765 31-129, looked up)
chain: HQRKVVSWIDVYTRATCQPREVVVPLTVELMGTVAKQLVPSCVTVQRCGGCCPDDGLECVPTGQHQVRMQILMIRYPSSQLGEMSLEEHSQCECRPKKK
notes: not shown: additional 16 amino acids at the N-terminus which incorporate a His6 tag and a Genenase I cleavage site (pQE30)
Kd [5]: 0.8 nM
